Data on four molecules can be found in patent US10065993B2, “Peptides and peptide/active compound conjugates for renal targeting” (MERCK PATENT GMBH, priority 2013, dated 2018).

The subject of data set [1] is kidneys (i.e. proximal tubule cells, PTCs). Particulars: in vivo; cited from earlier work.
A further data set has as its system kidney. In words: Scintigraphic / SPECT distribution of radiolabelled peptides and conjugates (kidney selectivity). More on the design: species or system NMRI mice. Particulars: mouse, in vivo; for kidney specificity: iv. The protocol:
The labelling is carried out using a 1 mM stock solution of the peptide to be labelled in water (dimethyl sulfoxide (DMSO) may have to be added for better solubility). Tyrosine-containing peptides are labelled with iodine-123, iodine-125 or iodine-131 (Perkin-Elmer, Waltham, Mass., USA) by means of the chloramine-T method. To this end, 20 μl of phosphate buffer (0.25 M, pH 7.4) are added to 10 μl of the stock solution, and the desired amount of radioactive iodine is added. For the labelling, 5 μl of chloramine-T (2 mg/ml of H2O) are added. The reaction is carried out for 30 seconds and is subsequently terminated using 10 μl of a saturated methionine solution. In order to separate off free iodine and by-products, the reaction mixture is purified by means of semipreparative HPLC (Chromolith RP-18e, 100×4.6 mm). The separation is carried out using a linear gradient from 0.1% of TFA in water to 0.1% of TFA in acetonitrile in 10 minutes (flow rate: 2 ml/min, UV absorption at 214 nm, γ detection). The solvent is subsequently removed in a rotary evaporator, and the labelled peptide is taken up in the desired buffer.
The tyrosine-containing peptides are labelled with ^125iodine by means of the chloramine-T method. For the labelling, a 1 mM stock solution in water is used. If necessary, DMSO is added for better solubility. To this end, 20 μl of phosphate buffer (0.25 M, pH 7.4) are added to 10 μl of the stock solution, and the desired amount of radioactive iodine is added. The labelling is carried out using 5 μl of chloramine-T (2 mg/ml of H2O). The reaction is carried out for 30 seconds and is subsequently terminated using 10 μl of a saturated methionine solution.
After the labelling, the peptide is purified by means of semi-preparative HPLC in order to remove the excess free iodine and other by-products. 100 μl of the 0.1 mM stock solution are in each case used for the injection. Before the injection, the radioactivity is recorded by means of a Geiger counter. […]

Ends that are not written are not given here. Peptide text beside a SMILES is read from it. * marks the point of attachment. ξ: configuration not given here. Lipoyl(6ξ) = O=C(CCCCC1CCSS1)*

`C[C@@H](O)[C@@H]1NC(=O)[C@H](CCCCN)NC(=O)[C@@H](Cc2c[nH]c3ccccc23)NC(=O)[C@H](Cc2ccc(O)cc2)NC(=O)[C@@H](NC(=O)[C@@H](Cc2ccccc2)NC(=O)CN2CCN(CC(=O)O)CCN(CC(=O)O)CCN(CC(=O)O)CC2)CSSC[C@@H](C(=O)N[C@H](CO)[C@@H](C)O)NC1=O` [DOTATOC]: the “uptake by the kidneys” value in data set [1] is on record as “about 20%”.

For the molecule `NCCCCC(NC(=O)C(CCC(=O)O)NC(=O)C(CCC(=O)O)NC(=O)C(CCC(=O)O)NC(=O)C(CCCCNC(=O)CCCCC1CCSS1)NC(=O)C(CCCCN)NC(=O)C(CCCCN)NC(=O)C(CCC(=O)O)NC(=O)C(CCC(=O)O)NC(=O)C(CCC(=O)O)NC(=O)C(CCCCNC(=O)CCCCC1CCSS1)NC(=O)C(CCCCN)NC(=O)C(CCCCN)NC(=O)C(CCC(=O)O)NC(=O)C(CCC(=O)O)NC(=O)C(CCC(=O)O)NC(=O)C(CCCCNC(=O)CCCCC1CCSS1)NC(=O)C(CCCCN)NC(=O)C(CCCCN)NC(=O)C(N)Cc1ccc(O)cc1)C(N)=O` (stereo not shown) [y(KKKε(lipoic acid)EEE)3K] (H-YKKK(Lipoyl(6ξ))EEEKKK(Lipoyl(6ξ))EEEKKK(Lipoyl(6ξ))EEEK-NH2; configuration not given here), the kidney specificity entry in the data set with kidney is recorded as “high kidney specificity”. With “(APASLYN)2: dimer of literature kidney-selective peptide APASLYN (Denby et al.), SEQ ID NO: 90 (APASLYNAPASLYN; not fully specified)”, in the data set on kidney, the kidney selectivity entry was “already inadequate”.

On to “diacetylcaffeic acid (KKEEE)3K: diacetylcaffeic acid bonded at the N terminal of y(KKEEE)3K (KKEEEKKEEEKKEEEK-NH2; not fully specified (N-terminus))”, for which the kidney specificity result in the data set on kidney was “retain their high kidney specificity”.
